From the nanobody polyreactivity screen of Harvey et al. (2022) come the findings set out here.

The data set is described as follows: yeast display, Sf9 membrane polyspecificity reagent, FACS + sequencing; frameworks hold sequencing errors. The essentials:
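Galactose-induced (36–48 hours) yeast carrying a synthetic nanobody display library were exposed to 10% biotinylated, detergent-solubilized Sf9 membrane reagent at 4 °C for 1 hour. FACS followed streptavidin microbead enrichment, using low and high (top ~1%) gates for expression (anti-HA) and reagent binding (streptavidin). Colony PCR, MiSeq 2 × 250 sequencing and CDR-length filtering followed. Labels for polyreactivity reflect the gate of origin.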
Regarding “QVQLVESGGGLVQAGGSLRLSCAASGSTFWPYAMGWCRQAPGKERELVAAITWSGGRTYYADSVKGRFTISRDNAKNTVYLQMYSLKPEDTAVYYCAAYYRQGIAPNGFDYWGQGTQVTVSS”, the “polyreactivity (PSR sort gate)” value is listed as “high polyreactivity”.

With “QVQLVESGGGLVQAGGSLRLSCAASGSTFWPYAMGWYRQAPGKERELVAAIRVIGGSTYYADSVKGRFTISRDNAKNSVYLQMNSLKPEDTAVYYCNAYRPGGARFYARYRYDYWGQGTQVTVSS”, the “polyreactivity (PSR sort gate)” value is given as “low polyreactivity”.

Turning to “QVQLVESGGGLVQAGGSLRLSCAASGSTFWPYAMGWYRQATGKERELVAAISNGGGTKYADSVKGRFTISRDNAKNTVYLQMNSLKPEDTAVYYCAKTLWTGRAWYDYWGQGTQVTVSS”, the “polyreactivity (PSR sort gate)” value was “high polyreactivity”.

Turning to “QVQLVESGGGLVQAGGSLRLSCAASGSTFWRNALGWYRQAPGKERELVAAITDSGDSTYYADSVKGRFTISRDTAKNTVYLQMHSLKPEDTAVYYCAVDKLSLYGWDEYWGQGTQVTVSS”, the “polyreactivity (PSR sort gate)” value was “low polyreactivity”.

On to “QVQLVESGGGLVQAGGSLRLSCAASGSTFWRYAMGWYRQAPGKERELVAAITSSGDRTYYADSVKGRFTISRDNAKNTVYLQMNSLKPEDTAVYYCAAALWSSRGYYYAYYYWGQGTQVTVSS”, for which the “polyreactivity (PSR sort gate)” value is on record as “high polyreactivity”.

As to “QVQLVESGGGLVQAGGSLRLSCAASGSTFWSYAIGWYRQAPGKERELVATISAGGGSTSYADSVKGRFTISRDNAKNTVYLQMNSLKPEDTAVYYCATGYSDSSRYGGYYKFDYWGQGTQVTVSS”, the “polyreactivity (PSR sort gate)” value was “low polyreactivity”.

“QVQLVESGGGLVQAGGSLRLSCAASGSTFWSYAMGWYRQAPGKERELVAVITWSGGSTNYADSVKGRFTISRDNAKNTVYLQMNSLKPEDTAVYYCNAPYYFWSYIYDYLGQGTQVTVSS”: the “polyreactivity (PSR sort gate)” value is on record as “low polyreactivity”.

“QVQLVESGGGLVQAGGSLRLSCAASGSTFWSYTMGWYRQAPGKEREWVAAISRSGGSTYYADSVKGRFTISRDNAKNTVYLQLNSLKPEDTAVYYCAAADRYGSRYYYWGQGTQVTVSS”: the “polyreactivity (PSR sort gate)” value was “high polyreactivity”.

Regarding “QVQLVESGGGLVQAGGSLRLSCAASGSTFWVYAMGWYRPAPGKERELVAAIDYSGGSTYYADSVKGRFTISRDNAKNTVYLQMNSLKPEDTAVYYGAAGEGQYWLWDGEGEYDYWGQGTQVTVSS”, the “polyreactivity (PSR sort gate)” value is given as “low polyreactivity”.

With “QVQLVESGGGLVQAGGSLRLSCAASGSTFWYAMGWYRQAPGKERELVAAITARGGRTYYADSVKGRFTISRDNAKNTVYLQMNSLKPEDTAVYYCAAVSTGIGARYNYWGQGTQVTVSS”, the “polyreactivity (PSR sort gate)” value is given as “high polyreactivity”.

For the sequence “QVQLVESGGGLVQAGGSLRLSCAASGSTFWYNAMGWYRQAPGKERELVAAISQSGGRTYYADSVKGRFTISRDNAKNTVYLQMNSLKPEDTAVYYCNAVSRDKSLYDYWGQGTQVTVSS”, the “polyreactivity (PSR sort gate)” value is “high polyreactivity”.

Turning to “QVQLVESGGGLVQAGGSLRLSCAASGSTFWYNAMGWYRQAPGKERELVAAITQSGTRTYYADSVKGRFTISRDNAKNTVFLQMNSLKPEDTAVYYCAAGNAPYYRYGSKKYGYWGQGTQVTVSS”, the “polyreactivity (PSR sort gate)” value is listed as “high polyreactivity”.

Consider “QVQLVESGGGLVQAGGSLRLSCAASGSTFWYNAMGWYRQAPGKERELVAAITQSGTRTYYADSVKGRFTISRDNAKNTVYLQMNSLKPEDTAVYYCAARGREWYYWGQGTQVTVSS”, for which the “polyreactivity (PSR sort gate)” value is reported as “high polyreactivity”.

For the sequence “QVQLVESGGGLVQAGGSLRLSCAASGSTFWYNAMGWYTQAPGKERELVAAITWTGDGTYYADSVKGRFTISRDNAKNTVYLQMNSLKPEDTAVYYCAAAYFQWSTSIVGLDAWYDYWGQGTQVTVSS”, the “polyreactivity (PSR sort gate)” value is on record as “low polyreactivity”.

Regarding “QVQLVESGGGLVQAGGSLRLSCAASGSTFWYNMGWYRQAPGKERELVAAISYSSGRTYYADSVKGRFTISRDNAKNTVYLQMNSLKPEDTAVYYCAARYPRTRRYGYWGQGTQVTVSS”, the “polyreactivity (PSR sort gate)” value was “high polyreactivity”.

For the sequence “QVQLVESGGGLVQAGGSLRLSCAASGSTFWYYAMGWSRQAPGKERELVAAIRWSDGSTYYADSVKGRFTISRDNAKNTVYLQMNSLKPEDTAVYYCEYYYWGLGTQVTVSS”, the “polyreactivity (PSR sort gate)” value is reported as “low polyreactivity”.

Consider “QVQLVESGGGLVQAGGSLRLSCAASGSTFWYYGMGWYRQAPGKERELVAAITRGGSTYYADSVKGRFTISRDNAKNTVYLQMNSLKPEDTAVYYCAAGISVRWSPSYYYWGQGTQVTVSS”, for which the “polyreactivity (PSR sort gate)” value is listed as “high polyreactivity”.

With “QVQLVESGGGLVQAGGSLRLSCAASGSTFWYYVMGWYRQAPGKERELVAAISTRGDSTYYADSVKGRFTISRDNAKITVYFQMNSLKPEDTAVFDCAKSRQYSGRVRFDYWGKGTQVTVSS”, the “polyreactivity (PSR sort gate)” value was “low polyreactivity”.

Take “QVQLVESGGGLVQAGGSLRLSCAASGSTFYANAMGWYRQAPGKERELVAAISYSGGGTNYADSVKGRFTISRDNAKNTVYLQMISLKPEDTAVYYCAKRRDYDRYRYKKTSSVRGDYWGQGTQVTVSS”: the “polyreactivity (PSR sort gate)” value was “low polyreactivity”.

“QVQLVESGGGLVQAGGSLRLSCAASGSTFYAYAMGWYRQAPGKERELVAAIDSGGSTYYADSVKGRFPISRDNAKNTVYFQMNSLNPEDTAVYYCAVRHRYTRAYWGRDYWGQGTQVTVSS”: the “polyreactivity (PSR sort gate)” value is listed as “low polyreactivity”.

On to “QVQLVESGGGLVQAGGSLRLSCAASGSTFYAYAMGWYRQAPGKERELVAAISSDGTNYADSVKGRFTISRDNAKNTVYLQMNSLKPEDTAVYYCAADEASSRGYYDYDYWGQGTQVTVSS”, for which the “polyreactivity (PSR sort gate)” value is listed as “low polyreactivity”.

Regarding “QVQLVESGGGLVQAGGSLRLSCAASGSTFYAYDMGWYRQAPGKERELVAAISSGGSTYYADSVKGRFTISRDNAKNTVYLQMNSLKPEDTAVYYCAPEYTYELEASEPSDYDYWGQGTQVTVSS”, the “polyreactivity (PSR sort gate)” value is reported as “low polyreactivity”.

For the sequence “QVQLVESGGGLVQAGGSLRLSCAASGSTFYAYDMGWYRQAPGKERELVAAISSGGSTYYADSVKGRFTISRDNAKNTVYLQMNSLKPEDTAVYYCATEYTYELEASEPSDYDYWGQGTQVTVSS”, the “polyreactivity (PSR sort gate)” value is listed as “low polyreactivity”.

For the sequence “QVQLVESGGGLVQAGGSLRLSCAASGSTFYAYGMGWYRQAPGKERELVATITWSGGSTYYADSVKGRFTISRDNAKNTVYLQMNSLKPEDTAVYYCAARSPFPTIADGDYWGQGTQVTVSS”, the “polyreactivity (PSR sort gate)” value is given as “low polyreactivity”.

In the case of “QVQLVESGGGLVQAGGSLRLSCAASGSTFYAYTMGWYRQAPGKERELVAAITGRGGRTYYADSVKGRFTISRDNAKNTVYLQMNSLKPEDTAVYYCAAVYRKYPYSDYDYWGQGTQVTVSS”, the “polyreactivity (PSR sort gate)” value is on record as “high polyreactivity”.

With “QVQLVESGGGLVQAGGSLRLSCAASGSTFYDYAMGWYRQAPGKERELVAAITSGGSTDYADSVKGRFTISRDNAKNTVYLQMNSLKPEDTAVYYCATDTDSNYISHQFVWYDYWGQGTQVTVSS”, the “polyreactivity (PSR sort gate)” value was “low polyreactivity”.

With “QVQLVESGGGLVQAGGSLRLSCAASGSTFYDYDMGWYSQAPGKESELVAAITSGGSTKYADSVKGRFTISRDNAKNTVYLQMNSLKPEDTAVYYCNADSQRPAYWDGYWGQGTKVTVSS”, the “polyreactivity (PSR sort gate)” value is “low polyreactivity”.

In the case of “QVQLVESGGGLVQAGGSLRLSCAASGSTFYENAKGWYRQAPGKERELVAGISRGGGSTYYADSVKGRFTISRDNAKNTVYLQMNSLKPEDTAVYYCARRPRYGVEYNYWGQGTQVTVSS”, the “polyreactivity (PSR sort gate)” value was “low polyreactivity”.

“QVQLVESGGGLVQAGGSLRLSCAASGSTFYFYAMGWYRQAPGKERELVAAITGSGGSTYYADSVKGRFTISRDNAKNTVYLQMNSLKPEDTAVYYCAARFSYWKTKRAYDWGQGTQVTVSS”: the “polyreactivity (PSR sort gate)” value is recorded as “high polyreactivity”.

With “QVQLVESGGGLVQAGGSLRLSCAASGSTFYFYAMGWYRQAPGKERELVATISYSDGSTYYADSVKGRFTISRDNAKNTVYLQMNSLKPEDSAVYYCAKGSNDWVNFGYDYWGQGTQVTVSS”, the “polyreactivity (PSR sort gate)” value is on record as “low polyreactivity”.

For “QVQLVESGGGLVQAGGSLRLSCAASGSTFYGNAMGWYRQAPGKERELVAAIRWRGGRTYYADSVKGRFTISRDNAKNTVYLQMNSLKPEDTAVYYCNALPGVSHTQYDRVGYWGQGTQVTVSS”, the “polyreactivity (PSR sort gate)” value is reported as “high polyreactivity”.

Take “QVQLVESGGGLVQAGGSLRLSCAASGSTFYGYAKGWYRQAPGKERELVAAITRSGGSTYYADSVKGRFTISRDNAKNTVYLQMNSLKPEDTAVYYCAVATGPVSYRRYYWGQGTQVTVSS”: the “polyreactivity (PSR sort gate)” value is “high polyreactivity”.

In the case of “QVQLVESGGGLVQAGGSLRLSCAASGSTFYGYAMGRYRQSPGKERELVAAITRSGGSTYYADSVKGRFTISRDNAKNTVYLQMNSLKPEDTEVYYCNKYGYKGGVGYDYWGQGTQVTVSS”, the “polyreactivity (PSR sort gate)” value was “high polyreactivity”.

With “QVQLVESGGGLVQAGGSLRLSCAASGSTFYGYAMGSYRQAPGKERELVAAISYSGSSTYYADSVKGRFTISRDNAKNTVYLQMNSLKPEDTAVFYCAVDDTHPFGPDGGGDYWGQCTQVTVSS”, the “polyreactivity (PSR sort gate)” value is on record as “low polyreactivity”.

With “QVQLVESGGGLVQAGGSLRLSCAASGSTFYGYAMGWYRQAPGKERELVAAIRRIGGTTYADSVKGRFTISRDNAKNTVYLQMNSLKPVDTAVYYCAAYGFSYRYRYYYWGQGTQVTVSS”, the “polyreactivity (PSR sort gate)” value is recorded as “high polyreactivity”.

Turning to “QVQLVESGGGLVQAGGSLRLSCAASGSTFYGYAMGWYRQAPGKERELVAAISSSGTRTYYADSVKGRFTISRDNAKNTVYLQMNSLKPEDTAVYYCNAYYYIPFEGRGYSKMDYWGQGTQVTVSS”, the “polyreactivity (PSR sort gate)” value is recorded as “high polyreactivity”.

Regarding “QVQLVESGGGLVQAGGSLRLSCAASGSTFYGYAMGWYRQAPGKERELVAAISWRGGRTNYADSVKGRFTISRDNAKNTVYLQMNSLKPEDTAFYYCAARSYGITDYGMYSWGQGTQVTVSS”, the “polyreactivity (PSR sort gate)” value was “high polyreactivity”.

Take “QVQLVESGGGLVQAGGSLRLSCAASGSTFYGYAMGWYRQAPGKERELVAAITRSGGSTYYADSVKGRFTISRDNAKNTVYLQMNSLKPEDTEVYYCNKYGYKGGVGYDYWGQGTQVTVSS”: the “polyreactivity (PSR sort gate)” value was “high polyreactivity”.

For the sequence “QVQLVESGGGLVQAGGSLRLSCAASGSTFYGYAMGWYRQAPGKERELVAAITRSGGSTYYADSVKGRFTISRDNAKYTVYLQMNSLKPEDTEVYYCNKYGYKGGVGYDYWGQGTQVTVSS”, the “polyreactivity (PSR sort gate)” value is recorded as “high polyreactivity”.

In the case of “QVQLVESGGGLVQAGGSLRLSCAASGSTFYGYAMGWYRQAPGKERELVAAITSTVITDYADSVKGRFTISRDNAKNTVYLQMNSLKPEDTAVYYCNKDRATRVTAEFRGDDDYWGQGTQVTVSS”, the “polyreactivity (PSR sort gate)” value is “low polyreactivity”.
